In article PMC7461331, “Stability of Begomoviral pathogenicity determinant βC1 is modulated by mutually antagonistic SUMOylation and SIM interactions” (BMC Biology, 2020):

Molecular target: the molecule itself
Test: SEC; size exclusion profile of recombinant NiNTA purified 6X HIS SUMO proteins on a SD75 column, void volume 40.25 ml; AtSUMO3 and AtSUMO5 after refolding

Row | Protein | binding result
1 | 6X HIS tagged AtSUMO3, recombinant, refolded (natural protein, Arabidopsis thaliana, UniProt Q9FLP5 1-111, looked up, 15N-labelled; not shown: His6, N-terminal, kept) MSNPQDDKPIDQEQEAHVILKVKSQDGDEVLFKNKKSAPLKKLMYVYCDRRGLKLDAFAFIFNGARIGGLETPDELDMEDGDVIDACRAMSGGLRANQRQWSYMLFDHNGL | binds
2 | 6X HIS tagged AtSUMO5, recombinant, refolded (natural protein, Arabidopsis thaliana, UniProt Q8VZI7 1-108, looked up, 15N-labelled; not shown: His6, N-terminal, kept) MVSSTDTISASFVSKKSRSPETSPHMKVTLKVKNQQGAEDLYKIGTHAHLKKLMSAYCTKRNLDYSSVRFVYNGREIKARQTPAQLHMEEEDEICMVMELGGGGPYTP | binds
